Results from the supplement of paper PMC9170038.

Experiments:
[1] = system: MS2 coat protein; assay: apparent KD of MS2 coat protein, switch ON state; designed switch direction (-1 OFF switch, 1 ON switch): 1; higher = weaker reporter binding; conditions: FMN input: 0 or 200 uM; Eterna round: R93 (includes R88 designs)
How it was run: (§1)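 Designed RNA switches were transcribed on-chip from Illumina sequencing clusters. They were then titrated with SNAP-549-labelled MS2 coat protein (twofold steps, 0.7 or 1.5 nM to 3 µM; 0.8–1.5 h to 10–20 min per step) in 100 mM Tris-HCl pH 7.5, 80 mM KCl, 4 mM MgCl2, without or with constant ligand. Apparent KD is the per-design median of normalised cluster binding-curve fits.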

[2] = system: MS2 coat protein; assay: apparent KD of MS2 coat protein, switch OFF state (with FMN for OFF switches, without FMN for ON switches); designed switch direction (-1 OFF switch, 1 ON switch): 1; higher = weaker reporter binding; conditions: FMN input: 0 or 200 uM; Eterna round: R93 (includes R88 designs)
How it was run: as §1

Row | Sequence | apparent KD of MS2 coat protein [1] | apparent KD of MS2 coat protein [2]
1 | GGAAGACAUGAGGAUCACCCAUGUGGGAAUAUGGGAGGAUAUACAAAGACGAGAGUCAGAGUAGAAGGCCUAGGAG [salish99-ss1-101] | 68.2 nM | 106 nM
2 | AAAUAAAGGACUGAGGAUAUACCACAUGAAACAUGAGGAUCACCCAUGUUGAAAAACAAAGGGUGGUAGAAGGCAGUCCACAAAC [Same State 2.5c ( so lets mod hyphema)] | 10.7 nM | 14.1 nM
3 | GACUGCGAUGUGAAGGAUAUCCGCGACUGGACAUGAGGAUCACCCAUGUAUGCUUAGAACAUGCCGGAGAAGGUCACGAAUGAUU [JR_SS002_Sub1217] | 20.6 nM | 32.3 nM
4 | AAUAUACAUGAGGAUCACCCAUGUGAAAAUAUGGAAGGAUAUCGUAAAAAAAAAAAAAAACGAGAAGGUCCAAAAA [SS! 1 MT 14] | 18.7 nM | 30.2 nM
5 | CGGAGACAUGAGGAUCACCCAUGUGAGAAGAGGCGAGGAUAUCGAAAGAAAGAAGAGAAACGAGAAGGCGCGAGCA [salish99-SS1-068] | 22.9 nM | 24.4 nM
6 | AAAUAAAUGACUGAGGAUAUAUCGAUGGGUACAUGAGGAUCACCCAUGUGUUAAUAAAAAGGGUGGUAGAAGGUAGUCAACAAAC [Mod 16 of Pariah 4 by Hyphema in Round 1] | 238 nM | 748 nM
7 | AUAAUAAUAAGAUAGGAUAUACUAAAGUAAACAUGAGGAUCACCCAUGUAAAGAAAAAAACUCAUGUAGAAGGGUCAUAAAUAAA [moonwalk 1] | 46.3 nM | 48.6 nM
8 | AAAUAACAUGAGGAUCACCCAUGUUACAACUUUACAGGAUAUGUGGGUGAAAAUAGCAUGACAGAAGGGUACAGUA [SameState1 Malc#35] | 171 nM | 158 nM
9 | AAAAAAAAAAGACAGGAUAUCCAAAAGAAAACAUGAGGAUCACCCAUGUAAAAGAAAAUAAAAUGGGAGAAGGGUCAAAAUAAAG [Mat - Same State 2 - JL mod - D74] | 9.39 nM | 58.2 nM
10 | AAACCACAUGAGGAUCACCCAUGUGUAAAAAAUACAGGAUAUGGAAACACGAAAGUGAAACCAGAAGGGUGGAAAA [77%, Mat - Mod of Eli, 29] | 31.6 nM | 28.3 nM
11 | AAAGAAAAACUAGAGGAUAUCCAAGUGGUAACAUGAGGAUCACCCAUGUGAAGAAAGGAGCAUGAGGAGAAGGCUAGAAGAAAAA [JL Nando mod 25] | 19.2 nM | 82.3 nM
12 | AAAAAACAUGAGGAUCACCCAUGUGACAACAUGGGAGGAUAUACGAAGACGAGAGUCGAAGUAGAAGGCCUAAAAA [Garnet 76] | 98.5 nM | 65.2 nM
13 | AAAAGACAUGAGGAUCACCCAUGUCGAAAGACAUGAGGAUAUGUACAGACUUCGGUCUGUACAGAAGGCAUGAAAA [SS1 - 1067] | 17.1 nM | 68.7 nM
14 | ACUUCACAUGAGGAUCACCCAUGUCAGGCCGGACUAGGAUAUUAUAAACCAGAGUAAAAAUAAGAAGGAGUAGGAA [JR_SS001_Sub311] | 67.9 nM | 75.2 nM
15 | AAAGAAAAACUAGAGGAUAUCUGAGUGGUAACAUGAGGAUCACCCAUGUGAAGAAAGGAACAUGAGGAGAAGGCUAGAAGAAAAA [JL Nando mod 13] | 23.8 nM | 44.2 nM
16 | AAGAAACAUGAGGAUCACCCAUGUAAGAUAAACACAGGAUAUGCAAAAGAAACAAAGAAAGCAGAAGGGUGAAGAA [Mat - Same State 1 - Tesla mod - 49] | 17.8 nM | 48.4 nM
17 | AAGCAACAUGAGGAUCACCCAUGUAGCAGGGUCAGAGGAUAUUUGAGCUUGGUAAGGGUUAAAGAAGGUUGAUAAA [Alabeti] | 138 nM | 55.5 nM
18 | AAAACUACAGAUCAGGAUAUGUUUGGGUAAACAUGAGGAUCACCCAUGUGCACCCGAUAAACAACACAGAAGGGAUAACGUGGGA [Soensole] | 12.7 nM | 23.7 nM
19 | AAAUAUAAAAACUAGGAUAUACUAAAAUAAACAUGAGGAUCACCCAUGUAAAAAAAAAAACUCAUGUAGAAGGAGUAAAUAUAAA [ss2 9th] | 22.6 nM | 13.8 nM
20 | CGGAGACAUGAGGAUCACCCAUGUGAGAAGAGGCGAGGAUAUCGAAAGAAAGAAGAGAAACGAGAAGGCGCGAGGC [salish99-SS1-079] | 21.1 nM | 41.2 nM
21 | AGACAUAACAGAGAGGAUAUCCAAAAGAAAACAUGAGGAUCACCCAUGUGAAAGAAAAUAAAAUGGGAGAAGGCUCACAUACAGA [Topaz 37] | 20 nM | 39 nM
22 | AAAACACAUGAGGAUCACCCAUGUAAAAACAUGGGAGGAUAUGCAUGGAAAACAUGCUAUGCAGAAGGCUCAUGUG [SS1 - 6] | 14.9 nM | 17.2 nM

Row | Sequence | apparent KD of MS2 coat protein [1] | apparent KD of MS2 coat protein [2]
23 | GAGAUACAUGAGGAUCACCCAUGUUGAAAUAUGGGAGGAUAUACAAGGUCGAAAGAUAAGGUAGAAGGCCUAAAAG [LROPPY Same State 1 - v03_deltaG=1.1] | 39.1 nM | 176 nM
24 | AAAAUACAUGAGGAUCACCCAUGUGAAAAUAUGGAAGGAUAUCAAUGCAAAAAAAAGCAUUGAGAAGGUCCAAAAA [SS! 1 MT 8] | 16.7 nM | 26.9 nM
25 | AACAUACAUGAGGAUCACCCAUGUUCCGGCAGGUCAGGAUAUAUAUCGAAAGAGUUAUAAAUAGAAGGGACAUAAA [JR_SS001_Sub009] | 49.6 nM | 60.7 nM
26 | AGAAGACAUGAGGAUCACCCAUGUGGGAAUAUGGGAGGAUAUACAAAGACGAGAGUCAGAGUAGAAGGCCUAGGAC [salish99-ss1-94] | 30.5 nM | 81 nM
27 | AAAAAACAUGAGGAUCACCCAUGUGCAAAAUUCGCAGGAUAUCCCUUUUUUAAAUGGGAGGGAGAAGGGUGAAAAA [Nob's Hobby 17 - Jieux - Same State 1] | 23.7 nM | 76 nM
28 | AUGGUCAAGUGUGAGGAUAUCCAUGCUCCCACAUGAGGAUCACCCAUGUCUUAAAGGGCGUAAAGGGAGAAGGUACGAACGCCAC [Edatxein] | 40.7 nM | 78.3 nM
29 | GGGAGGAAGAGAGAGGAUAUCCAAAGGAAAACAUGAGGAUCACCCAUGUAAAAGGUAGGAAAUUGGGAGAAGGCUCAAAAGACGG [salish99-ss2-047] | 28.1 nM | 52.5 nM
30 | AAGAAACAUGAGGAUCACCCAUGUGAGAACAUGGGAGGAUAUACGAAGACGAAAGUCGAAGUAGAAGGCCUAAAAG [Garnet 80] | 243 nM | 24.9 nM
31 | UUUCAUUACACGAAGGAUAUCGCUUUUCCGACAUGAGGAUCACCCAUGUAGUAGACCUCCCUGUUCGAGAAGGUCGCGGGUGAAC [JR_SS002_Sub604] | 192 nM | 32.4 nM
32 | AAAAGACAUGAGGAUCACCCAUGUCUUCGGACAUGAGGAUAUGUACAGACUUCGGUCUGUACAGAAGGCAUGAAAA [SS1 - 1065] | 18.5 nM | 48.3 nM
33 | AAAAGACAUGAGGAUCACCCAUGUAAAAACUUGAGAGGAUAUGCUUGAAAAACAUGCUAUGCAGAAGGCUCUAGUC [SS1 - 16] | 21.3 nM | 28.2 nM
34 | GAAAAACAUGAGGAUCACCCAUGUAGAAAUAUGGGAGGAUAUACGAAGACGAAAGUCAAAGUAGAAGGCCUAAAGA [Mat - Same State 1 - Eli mod - D103] | 26.5 nM | 70.4 nM
35 | AAAAAAAAAACUCAGGAUAUAGAUAAUUGAACAUGAGGAUCACCCAUGUAGUGAAAAAAAAAAAAUUAGAAGGGAGGAAAAAAAAA [SameState2-01] | 52.9 nM | 45.4 nM
36 | AGGAAACAUGAGGAUCACCCAUGUAGAAAAAUGGGAGGAUAUACAAAGACGAAAGUCAAAGUAGAAGGCCUAAAAG [76%, Meechl, 6] | 14.5 nM | 45.8 nM
37 | AAGAAACAUGAGGAUCACCCAUGUAAGAUAAACACAGGAUAUGCGAAAAGAAAGAAAGAAGCAGAAGGGUGAAGAA [Mat - Same State 1 - Tesla mod - 39] | 17.4 nM | 41.7 nM
38 | AGCAUAGACAGAGAGGAUAUCCACGAGACAACAUGAGGAUCACCCAUGUGAUAGAGAAUACGAUGGGAGAAGGCUCGCGGUACGA [Topaz 50] | 13.9 nM | 61.3 nM
39 | AAGAAACAUGAGGAUCACCCAUGUGAGAUAAACACAGGAUAUGCGAAAAUAAACAAAUAAGCAGAAGGGUGAAGAA [Mat - Same State 1 - Tesla mod - 68] | 32.9 nM | 74.8 nM
40 | AAUAAGACUAGCAAGGAUAUCGAAAACGAGACAUGAGGAUCACCCAUGUAACAAGUAUAAGUAUACGAGAAGGUGCAGGGUGUAA [JR_SS002_Sub302] | 174 nM | 36.9 nM
41 | GCUGGGCUACACUAGGAUAUGGGUGUCUAAACAUGAGGAUCACCCAUGUGAUGGCAAAACAAAGCUCAGAAGGAGUCGUAGCCCA [Inrionarus] | 14.7 nM | 22.3 nM
42 | GUGGUGUAGAUACAGGAUAUGUUGCUCGUAACAUGAGGAUCACCCAUGUAUCUAUGAGAUUAAAUGCAGAAGGGUGCACACCACG [Maerveen] | 17.3 nM | 374 nM
43 | AUAAAAGAAGCGAAGGAUAUCCAAAAACCAACAUGAGGAUCACCCAUGUAAAGAAAGAAAAAAUGGGAGAAGGUCGCAAAGAAUA [73%, More Fisker Same State 2, D3, 8] | 11.8 nM | 17.7 nM
